Results reported in US10822723.

B1: 6His-PAK4cat, recombinant catalytic domain of PAK4 (286-591) (protein)
chain: PPGPRSPQREPQRVSHEQFRAALQLVVDPGDPRSYLDNFIKIGEGSTGIVCIATVRSSGKLVAVKKMDLRKQQRRELLFNEVVIMRDYQHENVVEMYNSYLVGDELWVVMEFLEGGALTDIVTHTRMNEEQIAAVCLAVLQALSVLHAQGVIHRDIKSDSILLTHDGRVKLSDFGFCAQVSKEVPRRKSLVGTPYWMAPELISRLPYGPEVDIWSLGIMVIEMVDGEPPYFNEPPLKAMKMIRDNLPPRLKNLHKVSPSLKGFLDRLLVRDPAQRATAAELLKHPFLAKAGPPASIVPLMRQNRTR
B2: 6His-PAK1 (activated), PAK1 (1-545) (protein)
chain: MSNNGLDIQDKPPAPPMRNTSTMIGAGSKDAGTLNHGSKPLPPNPEEKKKKDRFYRSILPGDKTNKKKEKERPEISLPSDFEHTIHVGFDAVTGEFTGMPEQWARLLQTSNITKSEQKKNPQAVLDVLEFYNSKKTSNSQKYMSFTDKSAEDYNSSNALNVKAVSETPAVPPVSEDEDDDDDDATPPPVIAPRPEHTKSVYTRSVIEPLPVTPTRDVATSPISPTENNTTPPDALTRNTEKQKKKPKMSDEEILEKLRSIVSVGDPKKKYTRFEKIGQGASGTVYTAMDVATGQEVAIKQMNLQQQPKKELIINEILVMRENKNPNIVNYLDSYLVGDELWVVMEYLAGGSLTDVVTETCMDEGQIAAVCRECLQALEFLHSNQVIHRDIKSDNILLGMDGSVKLTDFGFCAQITPEQSKRSTMVGTPYWMAPEVVTRKAYGPKVDIWSLGIMAIEMIEGEPPYLNENPLRALYLIATNGTPELQNPEKLSAIFRDFLNRCLEMDVEKRGSAKELLQHQFLKIAKPLSSLTPLIAAAKEATKNNH

Assays:
[1] = molecular target: 13aa synthetic peptide of the Inka1 iBox with Pro(0)Ser substitution
[2] = molecular target: 13aa synthetic peptide of the Inka1 iBox-C with Pro(0)Ser substitution
[3] = molecular target: 13aa synthetic peptide of the PAK4 AID with Pro(0)Ser substitution
[4] = molecular target: GST-iBox, recombinant 38 amino acid Inka box, Inka1 (166-203) [GST: P08515]

| Protein | phosphorylation of synthetic 13mer peptides in an array [1] | phosphorylation of synthetic 13mer peptides in an array [2] | phosphorylation of synthetic 13mer peptides in an array [3] | kinase activity, phosphorylation of GST-Raf13 (in vitro kinase assay) [4] |
| --- | --- | --- | --- | --- |
| B1 | Inka1-derived sequences were significantly better substrates | Inka1-derived sequences were significantly better substrates | The AID-based peptide was phosphorylated as efficiently as Raf1 Ser338 | is a potent of PAK4cat inhibitor in vitro |
| B2 |  |  |  | does not affect PAK1 |
